Reference: patent US20220127350A1 (NUMAB THERAPEUTICS, published 2022)

T1: human IL-17C (human, UniProt Q9P0M4 19-197)
T1 sequence: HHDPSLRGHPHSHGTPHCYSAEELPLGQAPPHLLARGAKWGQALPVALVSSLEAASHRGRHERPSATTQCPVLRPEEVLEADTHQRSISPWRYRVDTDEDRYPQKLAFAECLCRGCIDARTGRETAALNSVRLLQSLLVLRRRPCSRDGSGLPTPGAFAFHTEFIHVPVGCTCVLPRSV

T2: human IL-17F (human, UniProt Q96PD4 31-163)
T2 construct: Peprotech Cat. No. 200-25 in the direct ELISA
T2 sequence: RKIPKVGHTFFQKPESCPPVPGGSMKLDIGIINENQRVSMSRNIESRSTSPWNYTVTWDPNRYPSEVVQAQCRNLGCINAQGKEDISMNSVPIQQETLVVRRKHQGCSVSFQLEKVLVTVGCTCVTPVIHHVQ

T3: human IL-17B (human, UniProt Q9UHF5 21-180)
T3 sequence: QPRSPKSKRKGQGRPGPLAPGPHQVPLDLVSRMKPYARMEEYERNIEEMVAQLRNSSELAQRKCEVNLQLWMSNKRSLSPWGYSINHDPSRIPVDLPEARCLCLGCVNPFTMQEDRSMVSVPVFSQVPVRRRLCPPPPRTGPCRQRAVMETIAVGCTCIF

T4: human IL-17D (human, UniProt Q8TAD2 16-202, limits assumed)
T4 sequence: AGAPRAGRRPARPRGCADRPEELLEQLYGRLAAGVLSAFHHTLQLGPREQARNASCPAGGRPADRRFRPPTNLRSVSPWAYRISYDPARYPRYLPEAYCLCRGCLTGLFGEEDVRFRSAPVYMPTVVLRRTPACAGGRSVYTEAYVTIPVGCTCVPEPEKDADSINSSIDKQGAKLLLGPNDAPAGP

T5: human IL-17E (human, UniProt Q9H293 33-177)
T5 construct: also called IL-25
T5 sequence: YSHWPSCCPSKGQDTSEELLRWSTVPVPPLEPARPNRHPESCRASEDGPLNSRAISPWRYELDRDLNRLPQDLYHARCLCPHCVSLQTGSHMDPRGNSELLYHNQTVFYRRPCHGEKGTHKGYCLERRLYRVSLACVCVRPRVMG


What was measured:
cynomolgus monkey IL-17A [1] = target: T6, cynomolgus monkey IL-17A (Macaca fascicularis (cynomolgus monkey)); assay: SPR (Biacore T200)
T6 construct: also called cyno IL-17A; cyno IL17A
Procedure: (§1) After each analyte injection cycle the CAP sensor chip was regenerated and new antigen was captured. The scFvs were injected as analyte using a dose response multi-cycle kinetic assay with concentrations of the analyte ranging from 0.35 to 90 nM diluted in running buffer. Obtained sensorgrams were fitted using the 1:1 binding model. In addition, the scFvs were analyzed in an alternative SPR assay setup (“direct setup”).

human IL-17A [2] = target: T7, human IL-17A (human, UniProt Q16552 24-155, limits assumed); assay: cell-based or functional assay
cynomolgus monkey IL-17A [3] = target: T6, cynomolgus monkey IL-17A; assay: SPR (Biacore T200), cynomolgus IL-17A, scFv as analyte
Procedure: as §1

human IL-17C [4] = target: T1, human IL-17C; assay: competition ELISA: scFv coated, biotinylated IL-17A, unlabeled cytokine titrated
Source text: (§2) For this purpose, the scFvs were coated on a 96-well ELISA plate.

human IL-17F [5] = target: T2, human IL-17F; assay: as above
Source text: as §2

human IL-17A [6] = target: T7, human IL-17A; assay: competitive ELISA: IL-17RA coated, biotinylated IL-17A preincubated with scFv
Procedure: Finally, Tetramethylbenzidin solution (KPL, Cat. No. 53-00-00) was added to develop the plate for 5 to 10 minutes and the reaction was stopped with 1 M HCl. The plate was read using a microtiter plate reader (Infinity reader M200 Pro, Tecan) at a wavelength of 450 nm and 570 nm (reference wavelength).

human IL-17A [7] = target: T7, human IL-17A; assay: SPR (Biacore T200), direct setup: IL-17A amine-coupled on CM5, scFv as analyte
Procedure: as §1

human IL-17A [8] = target: T7, human IL-17A; assay: SPR (Biacore T200), capture setup: biotinylated IL-17A captured, scFv as analyte
Procedure: as §1

human IL-17B [9] = target: T3, human IL-17B; assay: competition ELISA: scFv PRO571 coated, binding of biotinylated IL-17A detected, unlabeled IL-17B titrated as competitor [II) B]
Source text: as §2

human IL-17D [10] = target: T4, human IL-17D; assay: competition ELISA: scFv PRO571 coated, binding of biotinylated IL-17A detected, unlabeled IL-17D titrated as competitor [II) A]
Source text: as §2

human IL-17E [11] = target: T5, human IL-17E; assay: competition ELISA: scFv PRO571 coated, binding of biotinylated IL-17A detected, unlabeled IL-17E titrated as competitor [II) A]
Source text: as §2

human IL-17B [12] = target: T3, human IL-17B; assay: competition ELISA: scFv PRO592 coated, binding of biotinylated IL-17A detected, unlabeled IL-17B titrated as competitor [II) D]
Source text: as §2

human IL-17C [13] = target: T1, human IL-17C; assay: competition ELISA: scFv PRO592 coated, binding of biotinylated IL-17A detected, unlabeled IL-17C titrated as competitor [II) D]
Source text: as §2

human IL-17D [14] = target: T4, human IL-17D; assay: competition ELISA: scFv PRO592 coated, binding of biotinylated IL-17A detected, unlabeled IL-17D titrated as competitor [II) C]
Source text: as §2

human IL-17E [15] = target: T5, human IL-17E; assay: competition ELISA: scFv PRO592 coated, binding of biotinylated IL-17A detected, unlabeled IL-17E titrated as competitor [II) C]
Source text: as §2

human IL-17F [16] = target: T2, human IL-17F; assay: competition ELISA: scFv PRO592 coated, binding of biotinylated IL-17A detected, unlabeled IL-17F titrated as competitor [II) C]
Source text: as §2

KD, cyno/KD, human (cynomolgus monkey IL-17A [1])	IC50 in HT-29 assay, GRO-α secretion (human IL-17A [2])	Kd (cynomolgus monkey IL-17A [3])	koff (cynomolgus monkey IL-17A [3])	kon (cynomolgus monkey IL-17A [3])	IC50 (human IL-17A [6])	Kd (human IL-17A [7])	koff (human IL-17A [7])	kon (human IL-17A [7])	Kd (human IL-17A [8])	koff (human IL-17A [8])	kon (human IL-17A [8])	Binder	further results
0.28	0.1 ng/mL	0.0331 nM	3.88e-05 s⁻¹	1.17e+06 M⁻¹ s⁻¹	1.8 ng/mL	0.0403 nM	4.55e-05 s⁻¹	1.13e+06 M⁻¹ s⁻¹	0.119 nM	0.000144 s⁻¹	1.21e+06 M⁻¹ s⁻¹	PRO571 (humanized anti-IL-17A scFv, CDR graft of 27-31-C04) (scFv, VL-linker-VH; also called 27-31-C04-sc01; 27_31_C04_sc01) scFv: DIQMTQSPSSLSASVGDRVTITCQASESIYRYLSWYQQKPGKAPKLLIYLASTLTSGVPSRFSGSGSGTDFTLTISSLQPEDFATYYCQSNFGTASTTYYNTFGGGTKLTVLGGGGGSGGGGSGGGGSGGGGSEVQLVESGGGLVQPGGSLRLSCAASGFSFSGFYYMCWVRQAPGKGLEWIGCIDTGDGTTYYASWAKGRFTISRDNSKNTVYLQMNSLRAEDTAVYYCARDAAYGGYAYPAHGMDLWGQGTLVTVSS	binding result (human IL-17C [4]): no binding (tested: 100000 ng/ml); binding result (human IL-17F [5]): no binding (tested: 20000 ng/ml); binding result (human IL-17B [9]): no binding (tested: about 100000 ng/mL); binding result (human IL-17D [10]): no binding (tested: about 500000 ng/mL); binding result (human IL-17E [11]): no binding (tested: about 20000 ng/mL)
0.44	0.13 ng/mL	0.16 nM	5.38e-05 s⁻¹	336000 M⁻¹ s⁻¹	0.9 ng/mL	0.0376 nM	4.07e-05 s⁻¹	1.08e+06 M⁻¹ s⁻¹	0.367 nM	0.000142 s⁻¹	387000 M⁻¹ s⁻¹	PRO592 (humanized anti-IL-17A scFv, STR graft of 27-31-C04) (scFv, VL-linker-VH; also called 27-31-C04-sc02; 27_31_C04_sc02) scFv: DIQMTQSPSSLSASVGDRVTITCQASESIYRYLSWYQQKPGKAPKLLIYLASTLTSGVPSRFSGSGSGTDFTLTISSLQPEDFATYYCQSNFGTASTTYYNTFGGGTKLTVLGGGGGSGGGGSGGGGSGGGGSEVQLVESGGGLVQPGGSLTLSCAASGFSFSGFYYMCWVRQAPGKGLEWIGCIDTGDGTTYYASWAKGRFTISRDNSKNTVYLQMNSLRAEDTAVYYCARDAAYGGYAYPAHGMDLWGPGTLVTVSS	binding result (human IL-17B [12]): no binding (tested: about 100000 ng/mL); binding result (human IL-17C [13]): no binding (tested: about 100000 ng/mL); binding result (human IL-17D [14]): no binding (tested: about 500000 ng/mL); binding result (human IL-17E [15]): no binding (tested: about 20000 ng/mL); binding result (human IL-17F [16]): no binding (tested: about 20000 ng/mL)
